Laboratory results: PMC3141330 (Biochemistry, 2010)
Values belong to the binder of their own block, whether it stands above or below them. Ends that are not written are not given here.

B1: His6-Hsp90β (full-length) (natural protein)
chain: not shown
B3: Carboxyl terminus of Hsc70-interacting protein (CHIP), full-length human, His6-tagged (enzyme, UniProt Q9UNE7 1-303, looked up)
chain: MKGKEEKEGGARLGAGGGSPEKSPSAQELKEQGNRLFVGRKYPEAAACYGRAITRNPLVAVYYTNRALCYLKMQQHEQALADCRRALELDGQSVKAHFFLGQCQLEMESYDEAIANLQRAYSLAKEQRLNFGDDIPSALRIAKKKRWNSIEERRIHQESELHSYLSRLIAAERERELEECQRNHEGDEDDSHVRAQQACIEAKHDKYMADMDELFSQVDEKRKKRDIPDYLCGKISFELMREPCITPSGITYDRKDIEEHLQRVGHFDPVTRSPLTQEQLIPNLAMKEVIDAFISENGWVEDY

Assays:
[1] = target: B3; test: SEC
[2] = target: B3; test: ITC
[3] = target: B1; test: pull-down
[4] = target: His6-Hsp70 (full-length, wild type) (UniProt P0DMV8 1-641); test: ITC
His6-Hsp70 (full-length, wild type), sequence (P0DMV8 whole entry): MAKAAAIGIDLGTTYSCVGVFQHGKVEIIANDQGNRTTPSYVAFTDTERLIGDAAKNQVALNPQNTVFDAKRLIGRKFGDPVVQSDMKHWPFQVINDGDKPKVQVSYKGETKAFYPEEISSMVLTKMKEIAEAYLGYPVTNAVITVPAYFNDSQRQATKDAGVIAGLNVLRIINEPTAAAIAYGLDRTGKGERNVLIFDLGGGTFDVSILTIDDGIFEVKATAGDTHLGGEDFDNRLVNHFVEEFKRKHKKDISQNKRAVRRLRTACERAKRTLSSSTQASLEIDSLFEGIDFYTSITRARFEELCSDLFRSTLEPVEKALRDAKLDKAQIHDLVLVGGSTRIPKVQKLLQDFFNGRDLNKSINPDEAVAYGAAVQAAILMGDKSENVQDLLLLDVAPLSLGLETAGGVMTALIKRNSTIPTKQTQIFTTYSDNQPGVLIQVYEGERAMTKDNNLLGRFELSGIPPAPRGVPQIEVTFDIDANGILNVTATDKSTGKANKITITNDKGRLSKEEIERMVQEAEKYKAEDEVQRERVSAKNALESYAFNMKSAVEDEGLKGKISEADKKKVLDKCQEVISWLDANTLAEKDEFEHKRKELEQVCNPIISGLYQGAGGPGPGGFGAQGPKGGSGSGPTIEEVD

Binder: B1
stoichiometry N [1]: ~2.1 Hsp90 monomers per CHIP monomer

stoichiometry N [2]: ~0.9 Hsp90 C-terminal peptide per CHIP monomer
Binder: GSSAAWTEEMPPLEGDDDTSRMEEVD-OH [Hsp90 C-terminal peptide ([residues removed]-COO-), ITC]

stoichiometry N [2]: ~0.8 C-terminal Hsp70 peptide per CHIP monomer
Binder: GGGAPPSGGASSGPTIEEVD-OH [Hsp70 C-terminal peptide (GGGAPPSGGASSGPTIEEVD-COO-), ITC]

binding result [3]: binds
B2: GST-CHIP fusion (pGST-hCHIP (1-303)) (enzyme, human, UniProt Q9UNE7 1-303, looked up)
chain: MKGKEEKEGGARLGAGGGSPEKSPSAQELKEQGNRLFVGRKYPEAAACYGRAITRNPLVAVYYTNRALCYLKMQQHEQALADCRRALELDGQSVKAHFFLGQCQLEMESYDEAIANLQRAYSLAKEQRLNFGDDIPSALRIAKKKRWNSIEERRIHQESELHSYLSRLIAAERERELEECQRNHEGDEDDSHVRAQQACIEAKHDKYMADMDELFSQVDEKRKKRDIPDYLCGKISFELMREPCITPSGITYDRKDIEEHLQRVGHFDPVTRSPLTQEQLIPNLAMKEVIDAFISENGWVEDY

Binder: B3
Kd [4]: ~1000 nM
